Measured values from patent US20150376265A1 (Genentech, published 2015).

What was measured:
Test in all cases: cell-based or functional assay
[1] = biological target: T1, Complex I with gH P171H, on virions of HB1 - mutant virus 1 (HCMV, UniProt P12824 24-743; P16832 31-278; P16837 28-171; F5HCP3 26-214; F5HET4 19-129)
T1 chain 1: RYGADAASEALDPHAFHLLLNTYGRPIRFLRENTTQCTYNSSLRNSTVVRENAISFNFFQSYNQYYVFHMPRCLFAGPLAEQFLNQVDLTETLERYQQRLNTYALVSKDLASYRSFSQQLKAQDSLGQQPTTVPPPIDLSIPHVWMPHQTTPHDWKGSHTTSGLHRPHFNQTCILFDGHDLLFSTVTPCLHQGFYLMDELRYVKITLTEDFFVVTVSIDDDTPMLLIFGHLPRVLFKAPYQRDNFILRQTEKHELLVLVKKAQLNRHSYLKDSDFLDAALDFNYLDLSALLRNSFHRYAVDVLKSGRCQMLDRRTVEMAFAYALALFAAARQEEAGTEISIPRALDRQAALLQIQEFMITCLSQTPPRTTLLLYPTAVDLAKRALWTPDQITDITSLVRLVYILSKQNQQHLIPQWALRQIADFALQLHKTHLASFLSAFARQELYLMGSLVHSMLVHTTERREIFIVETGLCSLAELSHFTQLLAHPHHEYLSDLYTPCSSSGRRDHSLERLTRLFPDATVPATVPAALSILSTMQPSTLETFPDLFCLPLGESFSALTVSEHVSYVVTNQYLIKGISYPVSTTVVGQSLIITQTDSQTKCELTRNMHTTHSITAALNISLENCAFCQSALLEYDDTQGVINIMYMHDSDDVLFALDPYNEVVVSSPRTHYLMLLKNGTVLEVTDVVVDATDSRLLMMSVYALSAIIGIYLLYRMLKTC
T1 chain 2: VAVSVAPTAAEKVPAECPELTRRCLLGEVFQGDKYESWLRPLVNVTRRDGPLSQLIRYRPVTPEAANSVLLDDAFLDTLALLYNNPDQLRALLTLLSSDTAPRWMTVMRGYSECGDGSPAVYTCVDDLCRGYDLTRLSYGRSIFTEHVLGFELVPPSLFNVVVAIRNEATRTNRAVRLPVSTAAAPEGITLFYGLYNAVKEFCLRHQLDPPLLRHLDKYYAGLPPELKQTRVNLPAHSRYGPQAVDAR
T1 chain 3: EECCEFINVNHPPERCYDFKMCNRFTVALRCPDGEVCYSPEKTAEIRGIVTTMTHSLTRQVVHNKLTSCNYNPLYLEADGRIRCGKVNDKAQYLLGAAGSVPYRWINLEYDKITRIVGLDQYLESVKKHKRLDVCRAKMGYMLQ
T1 chain 4: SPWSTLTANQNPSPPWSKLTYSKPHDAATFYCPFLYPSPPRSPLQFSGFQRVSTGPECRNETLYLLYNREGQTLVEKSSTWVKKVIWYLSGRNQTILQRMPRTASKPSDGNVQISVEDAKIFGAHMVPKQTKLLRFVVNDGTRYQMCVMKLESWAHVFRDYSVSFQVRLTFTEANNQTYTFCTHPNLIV
T1 chain 5: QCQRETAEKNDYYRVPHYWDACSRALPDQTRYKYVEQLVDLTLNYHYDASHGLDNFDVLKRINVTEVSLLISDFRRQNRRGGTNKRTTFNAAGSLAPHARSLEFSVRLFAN

[2] = biological target: T2, Complex I with gH D446N, on virions of HB1 - mutant virus 4 (HCMV, UniProt P12824 24-743; P16832 31-278; P16837 28-171; F5HCP3 26-214; F5HET4 19-129)
T2 chain 1: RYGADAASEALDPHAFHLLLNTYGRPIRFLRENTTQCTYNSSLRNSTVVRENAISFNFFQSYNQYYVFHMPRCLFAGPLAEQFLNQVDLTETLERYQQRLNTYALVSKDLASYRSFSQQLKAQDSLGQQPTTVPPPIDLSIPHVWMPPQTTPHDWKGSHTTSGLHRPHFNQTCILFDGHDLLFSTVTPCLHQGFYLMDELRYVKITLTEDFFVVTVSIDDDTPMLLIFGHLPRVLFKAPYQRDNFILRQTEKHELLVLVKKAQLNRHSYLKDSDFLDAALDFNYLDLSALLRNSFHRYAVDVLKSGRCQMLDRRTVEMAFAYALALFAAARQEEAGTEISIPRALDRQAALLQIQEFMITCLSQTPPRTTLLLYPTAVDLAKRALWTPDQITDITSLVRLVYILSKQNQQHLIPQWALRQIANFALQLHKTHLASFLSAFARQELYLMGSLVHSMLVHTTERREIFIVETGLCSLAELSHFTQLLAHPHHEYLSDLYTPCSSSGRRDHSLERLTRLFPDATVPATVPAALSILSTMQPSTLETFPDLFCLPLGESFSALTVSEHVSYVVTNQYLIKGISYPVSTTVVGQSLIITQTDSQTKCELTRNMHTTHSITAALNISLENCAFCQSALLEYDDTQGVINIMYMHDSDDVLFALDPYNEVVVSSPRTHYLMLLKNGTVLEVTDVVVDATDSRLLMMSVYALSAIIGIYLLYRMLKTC
T2 chain 2: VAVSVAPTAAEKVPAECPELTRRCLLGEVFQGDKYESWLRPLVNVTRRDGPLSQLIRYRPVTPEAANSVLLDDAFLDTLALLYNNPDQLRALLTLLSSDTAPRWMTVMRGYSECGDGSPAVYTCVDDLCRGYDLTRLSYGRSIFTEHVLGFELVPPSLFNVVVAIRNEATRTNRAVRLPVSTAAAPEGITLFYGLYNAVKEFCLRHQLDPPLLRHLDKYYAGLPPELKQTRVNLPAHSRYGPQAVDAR
T2 chain 3: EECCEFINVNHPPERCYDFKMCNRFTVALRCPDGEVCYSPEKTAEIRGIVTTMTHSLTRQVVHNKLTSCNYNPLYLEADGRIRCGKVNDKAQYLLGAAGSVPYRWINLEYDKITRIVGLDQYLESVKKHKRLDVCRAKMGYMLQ
T2 chain 4: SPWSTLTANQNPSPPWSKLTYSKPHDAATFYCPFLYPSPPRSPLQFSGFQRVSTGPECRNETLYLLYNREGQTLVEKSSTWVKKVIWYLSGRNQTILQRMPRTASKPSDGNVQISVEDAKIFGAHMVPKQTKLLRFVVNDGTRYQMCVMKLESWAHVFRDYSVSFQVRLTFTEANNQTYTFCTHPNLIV
T2 chain 5: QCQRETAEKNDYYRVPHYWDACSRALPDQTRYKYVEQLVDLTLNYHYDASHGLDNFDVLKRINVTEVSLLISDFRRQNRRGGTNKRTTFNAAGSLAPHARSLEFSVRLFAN

[3] = biological target: T3, Complex I with gH W168R, on virions of HB1 - mutant virus 6 (HCMV, UniProt P12824 24-743; P16832 31-278; P16837 28-171; F5HCP3 26-214; F5HET4 19-129)
T3 chain 1: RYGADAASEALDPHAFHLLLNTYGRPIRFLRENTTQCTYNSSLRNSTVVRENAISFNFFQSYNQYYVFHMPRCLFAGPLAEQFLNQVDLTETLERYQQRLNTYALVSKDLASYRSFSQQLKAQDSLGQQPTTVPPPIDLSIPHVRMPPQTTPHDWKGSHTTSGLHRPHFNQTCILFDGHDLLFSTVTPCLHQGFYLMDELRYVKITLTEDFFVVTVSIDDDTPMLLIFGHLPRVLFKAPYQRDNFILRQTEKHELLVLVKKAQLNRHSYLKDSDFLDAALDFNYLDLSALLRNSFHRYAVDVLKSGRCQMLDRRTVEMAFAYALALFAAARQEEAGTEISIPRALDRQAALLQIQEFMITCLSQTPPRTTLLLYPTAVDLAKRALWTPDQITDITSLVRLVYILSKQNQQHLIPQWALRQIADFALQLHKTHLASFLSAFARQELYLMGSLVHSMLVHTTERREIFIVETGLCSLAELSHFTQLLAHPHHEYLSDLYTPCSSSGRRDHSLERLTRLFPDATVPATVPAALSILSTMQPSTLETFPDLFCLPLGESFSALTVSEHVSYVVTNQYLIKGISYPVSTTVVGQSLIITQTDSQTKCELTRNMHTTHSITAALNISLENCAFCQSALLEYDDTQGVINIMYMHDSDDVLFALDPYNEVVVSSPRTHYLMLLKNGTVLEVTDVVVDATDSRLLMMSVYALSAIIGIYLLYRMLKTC
T3 chain 2: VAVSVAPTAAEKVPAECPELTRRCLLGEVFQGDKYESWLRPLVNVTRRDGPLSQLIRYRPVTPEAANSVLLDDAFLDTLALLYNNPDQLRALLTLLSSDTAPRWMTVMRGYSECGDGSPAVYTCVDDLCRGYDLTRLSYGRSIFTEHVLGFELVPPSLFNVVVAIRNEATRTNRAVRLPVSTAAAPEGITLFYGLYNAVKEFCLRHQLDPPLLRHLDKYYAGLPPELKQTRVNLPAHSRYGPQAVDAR
T3 chain 3: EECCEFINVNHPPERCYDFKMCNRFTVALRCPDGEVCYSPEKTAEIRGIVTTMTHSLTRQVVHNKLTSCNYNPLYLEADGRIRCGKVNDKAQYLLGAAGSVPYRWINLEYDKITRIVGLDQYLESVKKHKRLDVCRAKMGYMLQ
T3 chain 4: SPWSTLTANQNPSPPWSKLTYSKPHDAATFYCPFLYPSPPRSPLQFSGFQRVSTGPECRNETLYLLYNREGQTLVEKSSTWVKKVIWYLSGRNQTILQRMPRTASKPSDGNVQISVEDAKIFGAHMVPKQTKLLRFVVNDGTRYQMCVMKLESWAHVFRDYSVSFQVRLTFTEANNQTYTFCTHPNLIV
T3 chain 5: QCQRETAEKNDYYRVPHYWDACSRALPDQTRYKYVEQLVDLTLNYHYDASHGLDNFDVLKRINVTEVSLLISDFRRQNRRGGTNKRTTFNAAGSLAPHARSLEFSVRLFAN

B1: hu8G8 (lambda4 8G8 graft and hu8G8.VH1) (antibody, V domains shown)
VH: EVQLVQSGAEVKKPGASVKVSCKASGYTFTNYGMNWVRQAPGQGLEWIGWINTYTGEPTYADDFKGRVTITRDTSTSTAYLELSSLRSEDTAVYYCARSWYYVSNYWYFDVWGQGTLVTVSS
VL: SVLTQSPSASASLGASVKLTCTLSSQHSTYTIEWYQQQPGKGPRYLMKLKKDGSHSTGDGIPDRFSGSSSGADRYLTISNLQSEDEADYYCGVGDTIKEQFVYVFGGGTKLTVLG
notes: also called hu8G8 with VH1; Humanized 8G8 with VH1
With B1 the “hu8G8 EC50, neutralisation of HB1 - mutant virus 1, Data Set 1” value [1] was 10 ng/mL, the “hu8G8 EC50, neutralisation of HB1 - mutant virus 1, Data Set 2” value [1] was 0.6 ng/mL and the “hu8G8 EC50, neutralisation of HB1 - mutant virus 4, Data Set 2” value [2] was 0.1 ng/mL. The “hu8G8 EC50, neutralisation of HB1 - mutant virus 6, Data Set 2” value [3] was 1 ng/mL.
